Data taken from publication PMC5404189.

Biological target: extracellular fibrinogen binding protein (Staphylococcus aureus) (UniProt A6QG59)
Assay: ELISA

UniProt A6QG59, sequence (A6QG59 30-165): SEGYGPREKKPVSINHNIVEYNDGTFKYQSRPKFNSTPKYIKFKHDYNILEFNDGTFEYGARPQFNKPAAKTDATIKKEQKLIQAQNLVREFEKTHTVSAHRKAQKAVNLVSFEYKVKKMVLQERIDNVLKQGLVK

human complement C3 (natural protein)
reBC at 10% plasma: > 80%
